What was measured:
SDF4 (human) = SDF4 (human) (UniProt Q9BRK5); assay: co-IP with control IgG, mass spectrometry; lysate of cells with N-FLAG B3GNT2
PJA2 (human) = PJA2 (human) (UniProt O43164); assay: as above
RPL9 (human) = RPL9 (human) (UniProt P32969); assay: as above
RRP12 (human) = RRP12 (human) (UniProt Q5JTH9); assay: as above
EIF4A1 (human) = EIF4A1 (human) (UniProt P60842); assay: as above
ZC3HAV1 (human) = ZC3HAV1 (human) (UniProt Q7Z2W4); assay: as above
CD70 (human) = CD70 (human) (UniProt P32970); assay: as above
ARF4 (human) = ARF4 (human) (UniProt P18085); assay: as above
PSMD4 (human) = PSMD4 (human) (UniProt P55036); assay: as above
STAU2 (human) = STAU2 (human) (UniProt Q9NUL3); assay: as above
RARS (human) = RARS (human) (UniProt P54136); assay: as above
MYO1C (human) = MYO1C (human) (UniProt O00159); assay: as above
IPO13 (human) = IPO13 (human) (UniProt O94829); assay: as above
ILF3 (human) = ILF3 (human) (UniProt Q12906); assay: as above
UGGT1 (human) = UGGT1 (human) (UniProt Q9NYU2); assay: as above
TOR1AIP2 (human) = TOR1AIP2 (human) (UniProt Q8NFQ8); assay: as above
RPL32 (human) = RPL32 (human) (UniProt P62910); assay: as above
GALNT2 (human) = GALNT2 (human) (UniProt Q10471); assay: as above
CCT2 (human) = CCT2 (human) (UniProt P78371); assay: as above
MSN (human) = MSN (human) (UniProt P26038); assay: as above
NPM1 (human) = NPM1 (human) (UniProt P06748); assay: as above
HADHA (human) = HADHA (human) (UniProt P40939); assay: as above
SPRR1A (human) = SPRR1A (human) (UniProt P35321); assay: as above
CCT7 (human) = CCT7 (human) (UniProt Q99832); assay: as above
SLC25A5 (human) = SLC25A5 (human) (UniProt P05141); assay: as above
SEL1L (human) = SEL1L (human) (UniProt Q9UBV2); assay: as above
EPRS (human) = EPRS (human) (UniProt P07814); assay: as above
RPL26 (human) = RPL26 (human) (UniProt P61254); assay: as above
GANAB (human) = GANAB (human) (UniProt Q14697); assay: as above
PIGR (human) = PIGR (human) (UniProt P01833); assay: as above
DNAJB11 (human) = DNAJB11 (human) (UniProt Q9UBS4); assay: as above
MAGT1 (human) = MAGT1 (human) (UniProt Q9H0U3); assay: as above
GAPDH (human) = GAPDH (human) (UniProt P04406); assay: as above
RPS4X (human) = RPS4X (human) (UniProt P62701); assay: as above
HSPD1 (human) = HSPD1 (human) (UniProt P10809); assay: as above
TAF15 (human) = TAF15 (human) (UniProt Q92804); assay: IgG control IP from lysate of cells overexpressing C-FLAG B3GNT2, then mass spectrometry
TIMP3 (human) = TIMP3 (human) (UniProt P35625); assay: as above

Chain of SDF4 (human) (Q9BRK5 37-362 limits assumed): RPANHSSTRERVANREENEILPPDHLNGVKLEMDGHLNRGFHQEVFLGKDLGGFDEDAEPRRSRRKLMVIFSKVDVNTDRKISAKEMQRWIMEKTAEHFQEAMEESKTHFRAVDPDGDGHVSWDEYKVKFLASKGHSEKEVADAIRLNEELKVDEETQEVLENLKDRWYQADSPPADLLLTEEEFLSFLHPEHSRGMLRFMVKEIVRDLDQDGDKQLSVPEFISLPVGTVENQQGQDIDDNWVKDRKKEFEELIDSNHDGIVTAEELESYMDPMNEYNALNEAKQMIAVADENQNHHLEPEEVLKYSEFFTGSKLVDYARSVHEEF
Chain of SLC25A5 (human) (P05141 2-298 limits assumed): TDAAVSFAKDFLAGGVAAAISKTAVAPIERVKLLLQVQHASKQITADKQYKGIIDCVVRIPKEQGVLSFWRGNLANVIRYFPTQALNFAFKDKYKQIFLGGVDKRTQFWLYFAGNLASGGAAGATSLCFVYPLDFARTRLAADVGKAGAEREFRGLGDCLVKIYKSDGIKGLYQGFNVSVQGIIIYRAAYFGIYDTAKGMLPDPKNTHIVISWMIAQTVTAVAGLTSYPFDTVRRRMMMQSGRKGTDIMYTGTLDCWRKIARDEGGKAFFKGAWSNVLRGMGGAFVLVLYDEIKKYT
Chain of GALNT2 (human) (Q10471 whole entry): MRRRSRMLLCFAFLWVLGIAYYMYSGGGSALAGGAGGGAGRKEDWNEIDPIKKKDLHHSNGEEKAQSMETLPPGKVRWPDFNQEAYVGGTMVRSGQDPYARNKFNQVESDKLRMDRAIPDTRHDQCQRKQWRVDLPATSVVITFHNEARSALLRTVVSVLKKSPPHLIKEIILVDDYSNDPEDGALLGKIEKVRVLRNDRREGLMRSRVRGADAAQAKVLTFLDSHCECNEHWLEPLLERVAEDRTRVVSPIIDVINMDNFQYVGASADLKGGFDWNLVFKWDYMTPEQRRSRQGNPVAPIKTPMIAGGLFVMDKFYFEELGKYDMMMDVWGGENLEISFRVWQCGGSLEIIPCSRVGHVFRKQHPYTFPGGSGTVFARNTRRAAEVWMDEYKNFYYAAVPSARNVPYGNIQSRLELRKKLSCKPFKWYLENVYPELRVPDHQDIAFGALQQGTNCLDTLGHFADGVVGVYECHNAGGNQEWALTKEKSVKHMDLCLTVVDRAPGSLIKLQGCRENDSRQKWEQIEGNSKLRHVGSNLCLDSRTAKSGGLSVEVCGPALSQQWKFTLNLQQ
Chain of PIGR (human) (P01833 19-764 limits assumed): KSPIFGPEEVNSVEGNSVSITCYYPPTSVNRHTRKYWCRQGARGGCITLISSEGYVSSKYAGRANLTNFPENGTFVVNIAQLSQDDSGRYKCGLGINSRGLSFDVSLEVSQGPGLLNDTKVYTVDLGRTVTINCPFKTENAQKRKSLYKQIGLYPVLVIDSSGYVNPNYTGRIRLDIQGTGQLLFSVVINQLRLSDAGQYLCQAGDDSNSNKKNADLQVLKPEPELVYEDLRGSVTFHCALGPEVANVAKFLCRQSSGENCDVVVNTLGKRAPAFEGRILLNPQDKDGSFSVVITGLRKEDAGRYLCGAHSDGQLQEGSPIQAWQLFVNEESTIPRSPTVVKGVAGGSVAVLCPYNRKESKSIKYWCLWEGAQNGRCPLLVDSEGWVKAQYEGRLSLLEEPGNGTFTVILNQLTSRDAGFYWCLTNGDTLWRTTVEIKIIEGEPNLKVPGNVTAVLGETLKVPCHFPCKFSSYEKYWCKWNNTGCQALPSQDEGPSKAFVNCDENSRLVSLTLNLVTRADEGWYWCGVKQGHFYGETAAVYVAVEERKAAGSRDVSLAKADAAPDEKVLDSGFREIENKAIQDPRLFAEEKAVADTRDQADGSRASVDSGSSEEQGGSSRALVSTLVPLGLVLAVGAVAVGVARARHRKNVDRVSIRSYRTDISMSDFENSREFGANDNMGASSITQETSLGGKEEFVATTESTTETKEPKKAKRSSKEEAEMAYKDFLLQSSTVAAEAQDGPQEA
Chain of GANAB (human) (Q14697 29-944 limits assumed): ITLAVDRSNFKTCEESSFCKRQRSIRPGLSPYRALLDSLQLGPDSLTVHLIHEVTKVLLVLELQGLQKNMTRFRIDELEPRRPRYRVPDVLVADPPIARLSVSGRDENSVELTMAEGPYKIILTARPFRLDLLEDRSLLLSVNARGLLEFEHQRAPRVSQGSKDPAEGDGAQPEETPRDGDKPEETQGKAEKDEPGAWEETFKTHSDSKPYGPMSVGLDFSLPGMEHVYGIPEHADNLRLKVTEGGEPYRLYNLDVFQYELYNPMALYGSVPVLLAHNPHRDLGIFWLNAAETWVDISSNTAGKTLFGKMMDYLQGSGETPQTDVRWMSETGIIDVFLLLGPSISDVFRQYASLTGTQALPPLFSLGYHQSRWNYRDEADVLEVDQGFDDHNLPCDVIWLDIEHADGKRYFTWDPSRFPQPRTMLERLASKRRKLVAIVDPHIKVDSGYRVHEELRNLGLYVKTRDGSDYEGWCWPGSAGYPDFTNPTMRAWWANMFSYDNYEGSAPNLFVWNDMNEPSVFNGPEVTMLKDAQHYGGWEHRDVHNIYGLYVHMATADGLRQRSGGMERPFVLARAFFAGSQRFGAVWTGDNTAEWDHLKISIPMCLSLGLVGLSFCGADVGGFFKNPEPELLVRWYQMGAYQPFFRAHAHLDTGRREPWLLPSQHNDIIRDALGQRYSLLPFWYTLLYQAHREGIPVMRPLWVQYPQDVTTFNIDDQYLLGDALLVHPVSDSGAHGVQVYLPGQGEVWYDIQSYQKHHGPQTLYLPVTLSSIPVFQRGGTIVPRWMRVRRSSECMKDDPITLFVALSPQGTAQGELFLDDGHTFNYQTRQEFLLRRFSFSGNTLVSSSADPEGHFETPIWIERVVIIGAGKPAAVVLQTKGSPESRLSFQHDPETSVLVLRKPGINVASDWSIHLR
Chain of PJA2 (human) (O43164 2-708 limits assumed): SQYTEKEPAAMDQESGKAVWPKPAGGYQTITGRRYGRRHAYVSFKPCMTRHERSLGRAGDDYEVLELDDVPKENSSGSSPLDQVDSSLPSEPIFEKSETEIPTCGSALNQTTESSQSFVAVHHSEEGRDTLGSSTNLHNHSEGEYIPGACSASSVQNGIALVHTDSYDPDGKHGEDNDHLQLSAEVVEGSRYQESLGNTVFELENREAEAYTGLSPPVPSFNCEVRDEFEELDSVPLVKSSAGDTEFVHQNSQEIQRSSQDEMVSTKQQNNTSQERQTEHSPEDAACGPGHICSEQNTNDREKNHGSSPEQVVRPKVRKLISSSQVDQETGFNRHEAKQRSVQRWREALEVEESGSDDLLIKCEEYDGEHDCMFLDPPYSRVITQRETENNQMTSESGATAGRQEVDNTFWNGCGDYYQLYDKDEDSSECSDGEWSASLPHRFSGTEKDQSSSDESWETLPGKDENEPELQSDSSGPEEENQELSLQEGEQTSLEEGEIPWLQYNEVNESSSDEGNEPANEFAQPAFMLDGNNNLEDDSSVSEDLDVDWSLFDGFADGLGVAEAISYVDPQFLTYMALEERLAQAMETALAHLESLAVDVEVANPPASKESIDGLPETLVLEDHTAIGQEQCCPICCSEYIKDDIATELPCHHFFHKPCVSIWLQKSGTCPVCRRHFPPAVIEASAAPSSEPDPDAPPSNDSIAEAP
Chain of IPO13 (human) (O94829 whole entry): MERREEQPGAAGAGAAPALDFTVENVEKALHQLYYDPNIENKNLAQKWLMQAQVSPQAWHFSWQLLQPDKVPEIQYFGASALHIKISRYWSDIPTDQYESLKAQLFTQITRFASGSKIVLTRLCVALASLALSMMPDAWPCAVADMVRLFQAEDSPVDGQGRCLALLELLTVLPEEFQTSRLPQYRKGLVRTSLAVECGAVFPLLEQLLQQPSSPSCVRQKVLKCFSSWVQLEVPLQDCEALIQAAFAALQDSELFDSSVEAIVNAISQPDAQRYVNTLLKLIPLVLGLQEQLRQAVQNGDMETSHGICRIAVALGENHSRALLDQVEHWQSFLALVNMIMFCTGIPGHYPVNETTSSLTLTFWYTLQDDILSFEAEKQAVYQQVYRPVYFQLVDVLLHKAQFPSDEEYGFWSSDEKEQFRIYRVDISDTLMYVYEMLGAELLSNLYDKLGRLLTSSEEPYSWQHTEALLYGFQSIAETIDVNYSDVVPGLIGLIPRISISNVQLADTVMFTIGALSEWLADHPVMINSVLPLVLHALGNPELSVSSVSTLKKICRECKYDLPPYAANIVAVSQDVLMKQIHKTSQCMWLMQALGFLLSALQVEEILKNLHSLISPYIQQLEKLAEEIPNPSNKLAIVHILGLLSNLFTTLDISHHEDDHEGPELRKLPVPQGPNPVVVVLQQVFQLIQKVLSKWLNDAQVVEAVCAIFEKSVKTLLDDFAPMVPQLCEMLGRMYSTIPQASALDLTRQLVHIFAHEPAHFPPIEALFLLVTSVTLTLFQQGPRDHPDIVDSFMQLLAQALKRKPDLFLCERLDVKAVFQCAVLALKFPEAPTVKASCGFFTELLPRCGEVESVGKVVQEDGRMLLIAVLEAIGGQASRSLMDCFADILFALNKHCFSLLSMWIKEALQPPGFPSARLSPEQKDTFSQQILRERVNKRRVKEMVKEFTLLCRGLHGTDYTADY
Chain of CD70 (human) (P32970 whole entry): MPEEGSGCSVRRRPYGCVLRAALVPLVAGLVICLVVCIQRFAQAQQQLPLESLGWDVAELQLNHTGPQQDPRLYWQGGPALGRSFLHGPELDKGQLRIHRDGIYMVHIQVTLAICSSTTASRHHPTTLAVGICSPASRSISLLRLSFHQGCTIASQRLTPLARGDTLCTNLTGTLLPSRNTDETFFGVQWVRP
Chain of ARF4 (human) (P18085 2-180 limits assumed): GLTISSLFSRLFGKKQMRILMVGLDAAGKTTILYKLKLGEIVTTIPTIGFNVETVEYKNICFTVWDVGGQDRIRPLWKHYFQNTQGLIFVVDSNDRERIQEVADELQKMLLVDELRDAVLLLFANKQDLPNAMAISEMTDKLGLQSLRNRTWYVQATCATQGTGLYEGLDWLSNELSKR
Chain of SPRR1A (human) (P35321 whole entry): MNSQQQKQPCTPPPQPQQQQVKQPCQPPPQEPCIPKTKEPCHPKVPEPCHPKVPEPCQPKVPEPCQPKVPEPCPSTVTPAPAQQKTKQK

IgG control (Millipore Sigma 12-371) (antibody)
co-IP mass spectrometry count (SDF4 (human)): 0
co-IP mass spectrometry count (PJA2 (human)): 0
co-IP mass spectrometry count (RPL9 (human)): 0
co-IP mass spectrometry count (RRP12 (human)): 0
co-IP mass spectrometry count (EIF4A1 (human)): 0
co-IP mass spectrometry count (ZC3HAV1 (human)): 0
co-IP mass spectrometry count (CD70 (human)): 0
co-IP mass spectrometry count (ARF4 (human)): 0
co-IP mass spectrometry count (PSMD4 (human)): 0
co-IP mass spectrometry count (STAU2 (human)): 0
co-IP mass spectrometry count (RARS (human)): 0
co-IP mass spectrometry count (MYO1C (human)): 0
co-IP mass spectrometry count (IPO13 (human)): 0
co-IP mass spectrometry count (ILF3 (human)): 0
co-IP mass spectrometry count (UGGT1 (human)): 0
co-IP mass spectrometry count (TOR1AIP2 (human)): 0
co-IP mass spectrometry count (RPL32 (human)): 0
co-IP mass spectrometry count (GALNT2 (human)): 0
co-IP mass spectrometry count (CCT2 (human)): 0
co-IP mass spectrometry count (MSN (human)): 0
co-IP mass spectrometry count (NPM1 (human)): 0
co-IP mass spectrometry count (HADHA (human)): 0
co-IP mass spectrometry count (SPRR1A (human)): 0
co-IP mass spectrometry count (CCT7 (human)): 0
co-IP mass spectrometry count (SLC25A5 (human)): 6
co-IP mass spectrometry count (SEL1L (human)): 0
co-IP mass spectrometry count (EPRS (human)): 0
co-IP mass spectrometry count (RPL26 (human)): 5
co-IP mass spectrometry count (GANAB (human)): 0
co-IP mass spectrometry count (PIGR (human)): 0
co-IP mass spectrometry count (DNAJB11 (human)): 0
co-IP mass spectrometry count (MAGT1 (human)): 0
co-IP mass spectrometry count (GAPDH (human)): 11
co-IP mass spectrometry count (RPS4X (human)): 12
co-IP mass spectrometry count (HSPD1 (human)): 0
co-IP mass spectrometry count (C-term IgG) (TAF15 (human)): 4
co-IP mass spectrometry count (C-term IgG) (TIMP3 (human)): 0

From patent publication US20240261333A1, “NOVEL TARGETS FOR ENHANCING ANTI-TUMOR IMMUNITY” (THE BROAD INSTITUTE, INC., priority 2021, published 2024)
